Experiments:
[1] = target: HIV-1 JR-CSF Env I323A (HIV-1 isolate JR-CSF) (UniProt P20871); test: cell-based or functional assay
[2] = target: HIV-1 JR-CSF Env Q422A (HIV-1 (isolate JR-CSF)) (UniProt P20871); test: cell-based or functional assay
[3] = target: HIV-1 JR-CSF Env N301A (HIV-1 JR-CSF) (UniProt P20871); test: cell-based or functional assay
[4] = target: HIV-1 JR-CSF Env S306A (HIV-1 JR-CSF) (UniProt P20871); test: cell-based or functional assay
[5] = target: HIV-1 APV6 envelope glycoprotein (Env) (HIV-1); test: cell-based or functional assay
[6] = target: HIV-1 Env of isolate 92UG031 (HIV-1); test: cell-based or functional assay
[7] = target: HIV-1 Env of isolate MGRM-AE-001 (HIV-1); test: cell-based or functional assay
[8] = target: HIV-1 JR-CSF Env N411A (HIV-1 (isolate JR-CSF)) (UniProt P20871); test: cell-based or functional assay
[9] = target: Env of the clade A HIV-1 pseudoviruses of the cross-clade 162-pseudovirus panel (n = 26); test: cell-based or functional assay
[10] = target: HIV-1 JR-CSF Env T413A (HIV-1 (isolate JR-CSF)) (UniProt P20871); test: cell-based or functional assay
[11] = target: HIV-1 JR-CSF Env N295A (HIV-1 JR-CSF) (UniProt P20871); test: cell-based or functional assay
[12] = target: HIV-1 JR-CSF Env R350A (HIV-1 isolate JR-CSF) (UniProt P20871); test: cell-based or functional assay
[13] = target: HIV-1 JR-CSF Env K421A (HIV-1 (isolate JR-CSF)) (UniProt P20871); test: cell-based or functional assay
[14] = target: HIV-1 JR-CSF Env Q337A (HIV-1 isolate JR-CSF) (UniProt P20871); test: cell-based or functional assay
[15] = target: HIV-1 JR-CSF Env N355A (HIV-1 isolate JR-CSF) (UniProt P20871); test: cell-based or functional assay
[16] = target: HIV-1 JR-CSF Env H330A (HIV-1 isolate JR-CSF) (UniProt P20871); test: cell-based or functional assay
[17] = target: HIV-1 93IN905 envelope glycoprotein (Env) (HIV-1); test: cell-based or functional assay
[18] = target: HIV-1 JR-CSF Env R419A (HIV-1 (isolate JR-CSF)) (UniProt P20871); test: cell-based or functional assay
[19] = target: HIV-1 JR-CSF Env N332A (HIV-1 isolate JR-CSF) (UniProt P20871); test: cell-based or functional assay
[20] = target: HIV-1 JR-CSF Env N392Q (HIV-1 (isolate JR-CSF)) (UniProt P20871); test: cell-based or functional assay
[21] = target: HIV-1 Env of isolate CMU02 (HIV-1); test: cell-based or functional assay
[22] = target: HIV-1 JR-CSF Env N276A (HIV-1 JR-CSF) (UniProt P20871); test: cell-based or functional assay
[23] = target: HIV-1 JR-CSF Env T394A (HIV-1 (isolate JR-CSF)) (UniProt P20871); test: cell-based or functional assay
[24] = target: HIV-1 JR-CSF Env T303A (HIV-1 JR-CSF) (UniProt P20871); test: cell-based or functional assay
[25] = target: HIV-1 Env of isolate 92WR024 (HIV-1); test: cell-based or functional assay
[26] = target: HIV-1 Env of isolate 93WR029 (HIV-1); test: cell-based or functional assay
[27] = target: HIV-1 Env of isolate 92WR020 (HIV-1); test: cell-based or functional assay
[28] = target: HIV-1 MGRM-C-027 envelope glycoprotein (Env) (HIV-1); test: cell-based or functional assay
[29] = target: HIV-1 JR-CSF Env T341A (HIV-1 isolate JR-CSF) (UniProt P20871); test: cell-based or functional assay
[30] = target: HIV-1 JR-CSF Env I420A (HIV-1 (isolate JR-CSF)) (UniProt P20871); test: cell-based or functional assay
[31] = target: HIV-1 Env of isolate MGRM-A-002 (HIV-1); test: cell-based or functional assay
[32] = target: HIV-1 JR-CSF Env R304A (HIV-1 JR-CSF) (UniProt P20871); test: cell-based or functional assay
[33] = target: Env of the clade D HIV-1 pseudoviruses of the cross-clade 162-pseudovirus panel (n = 25); test: cell-based or functional assay
[34] = target: HIV-1 JR-CSF Env N386A (HIV-1 isolate JR-CSF) (UniProt P20871); test: cell-based or functional assay
[35] = target: HIV-1 JR-CSF Env P299A (HIV-1 JR-CSF) (UniProt P20871); test: cell-based or functional assay
[36] = target: HIV-1 Env of isolate 92RW008 (HIV-1); test: cell-based or functional assay
[37] = target: HIV-1 Env of isolate JR-CSF (HIV-1) (UniProt P20871); test: cell-based or functional assay
[38] = target: HIV-1 JR-CSF Env R327A (HIV-1 isolate JR-CSF) (UniProt P20871); test: cell-based or functional assay
[39] = target: Env of the clade F HIV-1 pseudoviruses of the cross-clade 162-pseudovirus panel (n = 15); test: cell-based or functional assay
[40] = target: HIV-1 JR-CSF Env E321aA (HIV-1 isolate JR-CSF) (UniProt P20871); test: cell-based or functional assay
[41] = target: WT JR-FL gp120 (HIV-1 (isolate JR-FL)); test: ELISA on coated gp120; EC50 by nonlinear regression
[42] = target: JR-FL gp120 ΔV1/ΔV2 (HIV-1 (isolate JR-FL)); test: as above

B1: PGT-126 (antibody, V domains shown)
VH: QPQLQESGPGLVEASETLSLTCTVSGDSTAACDYFWGWVRQPPGKGLEWIGGLSHCAGYYNTGWTYHNPSLKSRLTISLDTPKNQVFLKLNSVTAADTAIYYCARFDGEVLVYHDWPKPAWVDLWGRGTLVTVSS
VL: QSALTQPPSASGSPGQSISISCTGTSNRFVSWYQQHPGKAPKLVIYGVNKRPSGVPDRFSGSKSGNTASLTVSGLQTDDEAVYYCSSLVGNWDVIFGGGTKLTVL
Question: With B1 as the binder, how does the Fold IC50 increase relative to wild-type [1] read?
Answer: 0.9 fold

Question: What about the Fold IC50 increase relative to wild-type [2] of the same binder?
Answer: 1.1 fold

Question: And the Fold IC50 increase relative to wild-type [3]?
Answer: 314 fold

Question: What about the Fold IC50 increase relative to wild-type [4] of the same binder?
Answer: 0.7 fold

Question: What about the IC50 neutralization [5] of the same binder?
Answer: 0.0249 µg/mL

Question: And the IC50 (µg/mL), pseudovirus neutralization [6]?
Answer: > 50 µg/mL

Question: What about the IC50 (µg/mL), pseudovirus neutralization [7] of the same binder?
Answer: 9.68 µg/mL

Question: What about the Fold IC50 increase relative to wild-type [8] of the same binder?
Answer: 0.7 fold

Question: And the Median IC50 against viruses neutralized with an IC50 <50 µg/ml [9]?
Answer: 0.01 µg/mL

Question: And the Fold IC50 increase relative to wild-type [10]?
Answer: 0.7 fold

Question: And the Fold IC50 increase relative to wild-type [11]?
Answer: 0.9 fold

Question: And the Fold IC50 increase relative to wild-type [12]?
Answer: 0.7 fold

Question: What about the Fold IC50 increase relative to wild-type [13] of the same binder?
Answer: 0.7 fold

Question: What about the Fold IC50 increase relative to wild-type [14] of the same binder?
Answer: 0.4 fold

Question: What about the Fold IC50 increase relative to wild-type [15] of the same binder?
Answer: 0.2 fold

Question: What about the Fold IC50 increase relative to wild-type [16] of the same binder?
Answer: 0.5 fold

Question: And the IC50 neutralization [17]?
Answer: 0.0194 µg/mL

Question: What about the Fold IC50 increase relative to wild-type [18] of the same binder?
Answer: 1.2 fold

Question: And the Fold IC50 increase relative to wild-type [19]?
Answer: 181 fold

Question: What about the Fold IC50 increase relative to wild-type [20] of the same binder?
Answer: 1.6 fold

Question: And the IC50 (µg/mL), pseudovirus neutralization [21]?
Answer: > 50 µg/mL

Question: And the Fold IC50 increase relative to wild-type [22]?
Answer: 0.9 fold

Question: What about the Fold IC50 increase relative to wild-type [23] of the same binder?
Answer: 0.6 fold

Question: And the Fold IC50 increase relative to wild-type [24]?
Answer: > 250 fold

Question: What about the IC50 (µg/mL), pseudovirus neutralization [25] of the same binder?
Answer: 42 µg/mL

Question: What about the IC50 (µg/mL), pseudovirus neutralization [26] of the same binder?
Answer: > 50 µg/mL

Question: What about the IC50 (µg/mL), pseudovirus neutralization [27] of the same binder?
Answer: 0.006 µg/mL

Question: And the IC50 neutralization [28]?
Answer: 1.14 µg/mL

Question: What about the Fold IC50 increase relative to wild-type [29] of the same binder?
Answer: 0.5 fold

Question: What about the Fold IC50 increase relative to wild-type [30] of the same binder?
Answer: 0.6 fold

Question: And the IC50 (µg/mL), pseudovirus neutralization [31]?
Answer: 0.015 µg/mL

Question: And the Fold IC50 increase relative to wild-type [32]?
Answer: 1.8 fold

Question: And the Median IC50 against viruses neutralized with an IC50 <50 µg/ml [33]?
Answer: 0.04 µg/mL

Question: And the Fold IC50 increase relative to wild-type [34]?
Answer: 0.9 fold

Question: What about the Fold IC50 increase relative to wild-type [35] of the same binder?
Answer: 0.2 fold

Question: And the IC50 (µg/mL), pseudovirus neutralization [36]?
Answer: 0.008 µg/mL

Question: What about the Polyclonal Transfectant Neutralization Index (well 5141 B17) [37] of the same binder?
Answer: 102

Question: And the Primary Neutralization Index (B cell culture well 5141 B17) [37]?
Answer: 1410

Question: What about the Fold IC50 increase relative to wild-type [38] of the same binder?
Answer: 2.2 fold

Question: And the Median IC50 against viruses neutralized with an IC50 <50 µg/ml [39]?
Answer: 0.05 µg/mL

Question: What about the Fold IC50 increase relative to wild-type [40] of the same binder?
Answer: 0.6 fold

Question: And the EC50 [41]?
Answer: 0.1 µg/mL

Question: What about the EC50 [42] of the same binder?
Answer: 0.3 µg/mL

Source: US20200024330A1
